The subject of data set [1] is HeLa Kyoto. As to the kind of experiment: solubility change mitosis vs G1/S (difference of NP-40 vs SDS log2 ratios) (log2 ratio difference); higher = more soluble in mitosis.
For data set [2], the system named is HeLa Kyoto. The data set can be described thus: solubility in G1/S (NP-40 vs SDS abundance) (log2 ratio); higher = more soluble. To be noted: cell cycle stage: G1/S.
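Wherever solubility change mitosis vs G1/S (difference of NP-40 vs SDS log2 ratios) is given: synchronized HeLa Kyoto cells (double thymidine block for G1/S, nocodazole release for mitosis), protein amounts in NP-40 versus SDS lysates quantified by mass spectrometry, three biological replicates.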
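Wherever solubility in G1/S (NP-40 vs SDS abundance) is given: HeLa Kyoto cells arrested at G1/S by double thymidine block, proteins quantified by TMT10plex mass spectrometry in mild NP-40 versus SDS extracts, three biological replicates.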

Regarding “MNRIRIHVLPTNRGRITPVPRSQEPLSCAFTHRPCSHPRLEGQEFCIKHILEDKNAPFKQCSYISTKNGKRCPNAAPKPEKKDGVSFCAEHVRRNALALHAQMKKTNPGPVGETLLCQLSSYAKTELGSQTPESSRSEASRILDEDSWSDGEQEPITVDQTWRGDPDSEADSIDSDQEDPLKHAGVYTAEEVALIMREKLIRLQSLYIDQFKRLQHLLKEKKRRYLHNRKVEHEALGSSLLTGPEGLLAKERENLKRLKCLRRYRQRYGVEALLHRQLKERRMLATDGAAQQAHTTRSSQRCLAFVDDVRCSNQSLPMTRHCLTHICQDTNQVLFKCCQGSEEVPCNKPVPVSLSEDPCCPLHFQLPPQMYKPEQVLSVPDDLEAGPMDLYLSAAELQPTESLPLEFSDDLDVVGDGMQCPPSPLLFDPSLTLEDHLVKEIAEDPVDILGQMQMAGDGCRSQGSRNSEKASAPLSQSGLATANGKPEPTSIS [KANSL2]”, the “solubility change mitosis (log2)” value in the data set on HeLa Kyoto [1] was -0.0302. The “solubility in G1/S (log2)” value in the data set on HeLa Kyoto [2] was found to be 0.453.

For “MNSRQAWRLFLSQGRGDRWVSRPRGHFSPALRREFFTTTTKEGYDRRPVDITPLEQRKLTFDTHALVQDLETHGFDKTQAETIVSALTALSNVSLDTIYKEMVTQAQQEITVQQLMAHLDAIRKDMVILEKSEFANLRAENEKMKIELDQVKQQLMHETSRIRADNKLDINLERSRVTDMFTDQEKQLMETTTEFTKKDTQTKSIISETSNKIDAEIASLKTLMESNKLETIRYLAASVFTCLAIALGFYRFWK [CCDC90B]”, the “solubility change mitosis (log2)” value in the data set on HeLa Kyoto [1] is 0.249. Besides, the “solubility in G1/S (log2)” value with HeLa Kyoto [2] was 0.144.

As to “MNSVGEACTDMKREYDQCFNRWFAEKFLKGDSSGDPCTDLFKRYQQCVQKAIKEKEIPIEGLEFMGHGKEKPENSS [TRIAP1]”, in the data set with HeLa Kyoto [1], the “solubility change mitosis (log2)” value was 0.6. Further, in the data set on HeLa Kyoto [2], the “solubility in G1/S (log2)” value is -0.88.

Regarding “MNVTSIALRAETWLLAAWHVKVPPMWLEACINWIQEENNNVNLSQAQMNKQVFEQWLLTDLRDLEHPLLPDGILEIPKGELNGFYALQINSLVDVSQPAYSQIQKLRGKNTTNDLVTAEAQVTPKPWEAKPSRMLMLQLTDGIVQIQGMEYQPIPILHSDLPPGTKILIYGNISFRLGVLLLKPENVKVLGGEVDALLEEYAQEKVLARLIGEPDLVVSVIPNNSNENIPRVTDVLDPALGPSDEELLASLDENDELTANNDTSSERCFTTGSSSNTIPTRQSSFEPEFVISPRPKEEPSNLSIHVMDGELDDFSLEEALLLEETVQKEQMETKELQPLTFNRNADRSIERFSHNPNTTNNFSLTCKNGNNNWSEKNVSEQMTNEDKSFGCPSVRDQNRSIFSVHCNVPLAHDFTNKEKNLETDNKIKQTSSSDSHSLNNKILNREVVNYVQKRNSQISNENDCNLQSCSLRSSENSINLSIAMDLYSPPFVYLSVLMASKPKEVTTVKVKAFIVTLTGNLSSSGGIWSITAKVSDGTAYLDVDFVDEILTSLIGFSVPEMKQSKKDPLQYQKFLEGLQKCQRDLIDLCCLMTISFNPSLSKAMVLALQDVNMEHLENLKKRLNK [RMI1]”, in the data set on HeLa Kyoto [1], the “solubility change mitosis (log2)” value was determined as 0.0277. Besides, the “solubility in G1/S (log2)” value with HeLa Kyoto [2] was -0.0709.

For “MPAGGRAGSLKDPDVAELFFKDDPEKLFSDLREIGHGSFGAVYFARDVRNSEVVAIKKMSYSGKQSNEKWQDIIKEVRFLQKLRHPNTIQYRGCYLREHTAWLVMEYCLGSASDLLEVHKKPLQEVEIAAVTHGALQGLAYLHSHNMIHRDVKAGNILLSEPGLVKLGDFGSASIMAPANSFVGTPYWMAPEVILAMDEGQYDGKVDVWSLGITCIELAERKPPLFNMNAMSALYHIAQNESPVLQSGHWSEYFRNFVDSCLQKIPQDRPTSEVLLKHRFVLRERPPTVIMDLIQRTKDAVRELDNLQYRKMKKILFQEAPNGPGAEAPEEEEEAEPYMHRAGTLTSLESSHSVPSMSISASSQSSSVNSLADASDNEEEEEEEEEEEEEEEGPEAREMAMMQEGEHTVTSHSSIIHRLPGSDNLYDDPYQPEITPSPLQPPAAPAPTSTTSSARRRAYCRNRDHFATIRTASLVSRQIQEHEQDSALREQLSGYKRMRRQHQKQLLALESRLRGEREEHSARLQRELEAQRAGFGAEAEKLARRHQAIGEKEARAAQAEERKFQQHILGQQKKELAALLEAQKRTYKLRKEQLKEELQENPSTPKREKAEWLLRQKEQLQQCQAEEEAGLLRRQRQYFELQCRQYKRKMLLARHSLDQDLLREDLNKKQTQKDLECALLLRQHEATRELELRQLQAVQRTRAELTRLQHQTELGNQLEYNKRREQELRQKHAAQVRQQPKSLKVRAGQRPPGLPLPIPGALGPPNTGTPIEQQPCSPGQEAVLDQRMLGEEEEAVGERRILGKEGATLEPKQQRILGEESGAPSPSPQKHGSLVDEEVWGLPEEIEELRVPSLVPQERSIVGQEEAGTWSLWGKEDESLLDEEFELGWVQGPALTPVPEEEEEEEEGAPIGTPRDPGDGCPSPDIPPEPPPTHLRPCPASQLPGLLSHGLLAGLSFAVGSSSGLLPLLLLLLLPLLAAQGGGGLQAALLALEVGLVGLGASYLLLCTALHLPSSLFLLLAQGTALGAVLGLSWRRGLMGVPLGLGAAWLLAWPGLALPLVAMAAGGRWVRQQGPRVRRGISRLWLRVLLRLSPMAFRALQGCGAVGDRGLFALYPKTNKDGFRSRLPVPGPRRRNPRTTQHPLALLARVWVLCKGWNWRLARASQGLASHLPPWAIHTLASWGLLRGERPTRIPRLLPRSQRQLGPPASRQPLPGTLAGRRSRTRQSRALPPWR [TAOK2]”, in the data set on HeLa Kyoto [1], the “solubility change mitosis (log2)” value is -0.0236. In addition, the “solubility in G1/S (log2)” value with HeLa Kyoto [2] was -0.239.

On to “MPALLERPKLSNAMARALHRHIMMERERKRQEEEEVDKMMEQKMKEEQERRKKKEMEERMSLEETKEQILKLEEKLLALQEEKHQLFLQLKKVLHEEEKRRRKEQSDLTTLTSAAYQQSLTVHTGTHLLSMQGSPGGHNRPGTLMAADRAKQMFGPQVLTTRHYVGSAAAFAGTPEHGQFQGSPGGAYGTAQPPPHYGPTQPAYSPSQQLRAPSAFPAVQYLSQPQPQPYAVHGHFQPTQTGFLQPGGALSLQKQMEHANQQTGFSDSSSLRPMHPQALHPAPGLLASPQLPVQMQPAGKSGFAATSQPGPRLPFIQHSQNPRFYHK [GPS2]”, for which the “solubility change mitosis (log2)” value in the data set on HeLa Kyoto [1] is -0.0529. Also, in the data set on HeLa Kyoto [2], the “solubility in G1/S (log2)” value is 0.416.

Take “MPAPAATYERVVYKNPSEYHYMKVCLEFQDCGVGLNAAQFKQLLISAVKDLFGEVDAALPLDILTYEEKTLSAILRICSSGLVKLWSSLTLLGSYKGKKCAFRVIQVSPFLLALSGNSRELVLD [RPP14]”: in the data set on HeLa Kyoto [1], the “solubility change mitosis (log2)” value is 0.0872. In addition, the “solubility in G1/S (log2)” value in the data set with HeLa Kyoto [2] is -0.294.

Regarding “MPCVQAQYSPSPPGSSYAAQTYSSEYTTEIMNPDYTKLTMDLGSTEITATATTSLPSISTFVEGYSSNYELKPSCVYQMQRPLIKVEEGRAPSYHHHHHHHHHHHHHHQQQHQQPSIPPASSPEDEVLPSTSMYFKQSPPSTPTTPAFPPQAGALWDEALPSAPGCIAPGPLLDPPMKAVPTVAGARFPLFHFKPSPPHPPAPSPAGGHHLGYDPTAAAALSLPLGAAAAAGSQAAALESHPYGLPLAKRAAPLAFPPLGLTPSPTASSLLGESPSLPSPPSRSSSSGEGTCAVCGDNAACQHYGVRTCEGCKGFFKRTVQKNAKYVCLANKNCPVDKRRRNRCQYCRFQKCLSVGMVKEVVRTDSLKGRRGRLPSKPKSPLQQEPSQPSPPSPPICMMNALVRALTDSTPRDLDYSRYCPTDQAAAGTDAEHVQQFYNLLTASIDVSRSWAEKIPGFTDLPKEDQTLLIESAFLELFVLRLSIRSNTAEDKFVFCNGLVLHRLQCLRGFGEWLDSIKDFSLNLQSLNLDIQALACLSALSMITERHGLKEPKRVEELCNKITSSLKDHQSKGQALEPTESKVLGALVELRKICTLGLQRIFYLKLEDLVSPPSIIDKLFLDTLPF [NR4A3]”, the “solubility change mitosis (log2)” value in the data set on HeLa Kyoto [1] is -0.0421. Further, the “solubility in G1/S (log2)” value with HeLa Kyoto [2] was -0.0603.

With “MPDNRQPRNRQPRIRSGNEPRSAPAMEPDGRGAWAHSRAALDRLEKLLRCSRCTNILREPVCLGGCEHIFCSNCVSDCIGTGCPVCYTPAWIQDLKINRQLDSMIQLCSKLRNLLHDNELSDLKEDKPRKSLFNDAGNKKNSIKMWFSPRSKKVRYVVSKASVQTQPAIKKDASAQQDSYEFVSPSPPADVSERAKKASARSGKKQKKKTLAEINQKWNLEAEKEDGEFDSKEESKQKLVSFCSQPSVISSPQINGEIDLLASGSLTESECFGSLTEVSLPLAEQIESPDTKSRNEVVTPEKVCKNYLTSKKSLPLENNGKRGHHNRLSSPISKRCRTSILSTSGDFVKQTVPSENIPLPECSSPPSCKRKVGGTSGRKNSNMSDEFISLSPGTPPSTLSSSSYRRVMSSPSAMKLLPNMAVKRNHRGETLLHIASIKGDIPSVEYLLQNGSDPNVKDHAGWTPLHEACNHGHLKVVELLLQHKALVNTTGYQNDSPLHDAAKNGHVDIVKLLLSYGASRNAVNIFGLRPVDYTDDESMKSLLLLPEKNESSSASHCSVMNTGQRRDGPLVLIGSGLSSEQQKMLSELAVILKAKKYTEFDSTVTHVVVPGDAVQSTLKCMLGILNGCWILKFEWVKACLRRKVCEQEEKYEIPEGPRRSRLNREQLLPKLFDGCYFYLWGTFKHHPKDNLIKLVTAGGGQILSRKPKPDSDVTQTINTVAYHARPDSDQRFCTQYIIYEDLCNYHPERVRQGKVWKAPSSWFIDCVMSFELLPLDS [BARD1]”, the “solubility change mitosis (log2)” value in the data set on HeLa Kyoto [1] was 0.187. Besides, the “solubility in G1/S (log2)” value with HeLa Kyoto [2] was -0.332.

For “MPGLVDSNPAPPESQEKKPLKPCCACPETKKARDACIIEKGEEHCGHLIEAHKECMRALGFKI [COX17]”, the “solubility change mitosis (log2)” value with HeLa Kyoto [1] was found to be 0.425. Further, the “solubility in G1/S (log2)” value in the data set on HeLa Kyoto [2] was -0.216.

With “MPIPPPPPPPPGPPPPPTFHQANTEQPKLSRDEQRGRGALLQDICKGTKLKKVTNINDRSAPILEKPKGSSGGYGSGGAALQPKGGLFQGGVLKLRPVGAKDGSENLAGKPALQIPSSRAAAPRPPVSAASGRPQDDTDSSRASLPELPRMQRPSLPDLSRPNTTSSTGMKHSSSAPPPPPPGRRANAPPTPLPMHSSKAPAYNREKPLPPTPGQRLHPGREGPPAPPPVKPPPSPVNIRTGPSGQSLAPPPPPYRQPPGVPNGPSSPTNESAPELPQRHNSLHRKTPGPVRGLAPPPPTSASPSLLSNRPPPPARDPPSRGAAPPPPPPVIRNGARDAPPPPPPYRMHGSEPPSRGKPPPPPSRTPAGPPPPPPPPLRNGHRDSITTVRSFLDDFESKYSFHPVEDFPAPEEYKHFQRIYPSKTNRAARGAPPLPPILR [WIPF2]”, in the data set on HeLa Kyoto [1], the “solubility change mitosis (log2)” value was 1.2. In addition, the “solubility in G1/S (log2)” value with HeLa Kyoto [2] is -0.764.

Take “MPNFSGNWKIIRSENFEELLKVLGVNVMLRKIAVAAASKPAVEIKQEGDTFYIKTSTTVRTTEINFKVGEEFEEQTVDGRPCKSLVKWESENKMVCEQKLLKGEGPKTSWTRELTNDGELILTMTADDVVCTRVYVRE [CRABP2]”: the “solubility change mitosis (log2)” value in the data set with HeLa Kyoto [1] is -0.109. Besides, the “solubility in G1/S (log2)” value in the data set with HeLa Kyoto [2] was -0.0816.

With “MPPKKDVPVKKPAGPSISKPAAKPAAAGAPPAKTKAEPAVPQAPQKTQEPPVDLSKVVIEFNKDQLEEFKEAFELFDRVGDGKILYSQCGDVMRALGQNPTNAEVLKVLGNPKSDELKSRRVDFETFLPMLQAVAKNRGQGTYEDYLEGFRVFDKEGNGKVMGAELRHVLTTLGEKMTEEEVETVLAGHEDSNGCINYEAFLKHILSV [MYL6B]”, in the data set with HeLa Kyoto [1], the “solubility change mitosis (log2)” value amounted to 0.317. In addition, the “solubility in G1/S (log2)” value with HeLa Kyoto [2] was -0.063.

The record behind these values is the supplement of paper PMC5998384.
